Test results: a protein production outcome set (Wang et al. 2014)

Assay: label from the status in PepcDB records
For “MTELMGQILGDRYELLRELGSHPGRRTYLALDRWHYEQVVLKLLLFGGGITWDDFKLFEREVAVLQTLDHPAIPRYLDYFEINTPDLKGFALVQTYIEAKSLALWQAEGRVFSEGDLRLLADRLLDILIYLHSRQPPVIHRDIKPTNILLGDRSGHDLGKVYLVDFGAVQTAIAGSTRTVVGTYGYMPPEQFGGKTLPASDLYALGMTLIYLATATPPDELPQKELRVQFQPLVSLSPPFIRWLEKMVAPALEERFDSATAARHALKQLDRSAEDASLITKTPPYGSRLQVRESPQGLLVHIPPVGLNASLFFLIPFAVAWNGFLVVWYSLAIASGFWLMAVFATGHLAVGLGLIGGILYRLLGWQVLMVSPKDLRFYEHILGFRWRHAKVLPLEVIEEIELQPRGTCRHQEDDRQQLWSKLVIRAGSQEIELTENAPRVTSRDLEWLAYTLGRYLGRRVTQARQDCRST”, the protein production was “failed”. For “MTEMELKLIKIDTSHYFEKKPGLGERVDYAGRCFYNKFQRVNAMLTSSLIQKHLKREIEIAHNLILRNDKVENIVFDYNGRNPERFYHKAQLLLREEGFMNFTAYNTKTPGHLHLYVHKGHTELGEGERLVKTLSMKLAQGLPKEWKVFPSNEWPKEFNILALPYEVFAKERGSSWAKHL”, the protein production was “not failed”. For “MTENAEKFLWGVATSAYQIEGATQEDGRGPSIWDAFAQRPGAIRDGSTGEPACDHYRRYEEDIALMQSLGVRAYRFSVAWPRILPEGRGRINPKGLAFYDRLVDRLLASGITPFLTLYHWDLPLALEERGGWRSRETAFAFAEYAEAVARALADRVPFFATLNEPWCSAFLGHWTGEHAPGLRNLEAALRAAHHLLLGHGLAVEALRAAGARRVGIVLNFAPAYGEDPEAVDVADRYHNRFFLDPILGKGYPESPFRDPPPVPILSRDLELVARPLDFLGVNYYAPVRVAPGTGTLPVRYLPPEGPATAMGWEVYPEGLYHLLKRLGREVPWPLYVTENGAAYPDLWTGEAVVEDPERVAYLEAHVEAALRAREEGVDLRGYFVWSLMDNFEWAFGYTRRFGLYYVDFPSQRRIPKRSALWYRERIARAQT”, the protein production was “not failed”. With “MTENGRYEYIVIGSEAAGVGLVRELTAAGKKVLAVDKSKEKIELLEDEGFDAVIADPTDESFYRSLDLEGVSAVLITGSDDEFNLKILKALRSVSDVYAIVRVSSPKKKEEFEEAGANLVVLVADAVKQAFMDKIKKMETL” the protein production was “not failed”. With “MTENGRYEYIVIGSEAAGVGLVRELTAAGKKVLAVDKSKEKIELLEDEGFDAVIADPTDESFYRSLDLEGVSAVLITGSDDEFNLKILKALRSVSDVYAIVRVSSPKKKEEFEEAGANLVVLVADAVKQAFMDKIKKMETLKKIEKLKRIMESLRGKRLGIFTHDNPDPDSMSSAYALREIAKQFDVIADILYYGEILHQKNRAMVNLLEIPMIRAPEVDLSHYDAFAIVDSSGPGVNNSIPPDIDISIVIDHHPAEKVVAEFVDLREDVGATATILTEYIKELKITPSKILATALFFGIKSETDEFKRNTRTADFLACAFLYPFVDQDLIEKIESPSISTETLDILGTAIKNRQVYSSFLISFAGFINDRDALPQAADFLLKLEGISTVVVFGVIKDTVYVSARNKDVRIHMGEVLRRAFGDVGSAGGHAHAAGAQIPLGIFGETNEKDLLAKLITEAITKRLLSAVGMEQS” the protein production was “failed”. For “MTENTFTDPSWLRLSCFIGVLLLCNLWENKLPRKTLTVKRSFRWLNNLSLVALNSAIIALVMPIAAFQAAAIAHDQQWGLFNLLSLPGWLNVLLAVIVLDLIIYVQHLVFHRVKPLWKIHRMHHADLDIDVTTGARFHPIEIIISMVVKITSVFILGVSPLAIVVFEIILNASAMFNHSNAKLALSIDKKLRKVIVTPDMHRVHHSVMVKETHSNFGFFLSVWDRWFGTYRAQPALGHNDVVIGVPEIREASEQRLDKLLTQPFRYREGKGKNVD”, the protein production was “not failed”. In the case of “MTEPEGYRRFLQLVAHEFFHLWNVKRIRPKALEQFDYEAENYTPSLWFSEGATSYYDLLLPLRAGLYGVDSFLEALGKDLSRYLTTPGRKVQPLAESSFDAWVKLYRRDAYSDNQQMSYYLKGQLVCWLLDLEIRNHQPDLEHHHHHH”, the protein production was “failed”. For “MTEPYAVPVPRGYRVGVWEVHAPIATGAFGSVYAARRTGGDDTKASPTRPGGDDNTKAPPTRPGGDGTGHRPSRPGTTDTAGTDDSHGTGTGTGTGTPSRAQTDTAHPAEGDTDDPGHTSGNGTTGTDGTRRSHGTGTGTPSRAHTDTAHPAEGDTDNPGHTSGNGTTGTDGTGRSHGTGTGTGTHNPSRVQTGAAHPAKGDTDNPGRTGGDGTARRPGRAGVVGAGRGGDAGGEVPDTVALKFLPTGTGTPRQLAHLRDLVEREVELLRRLRRPRLIRMYETLTVDDPAHPRLDGATVLVLERAEGSLSALLAATPRPPAGPALLAQVCEGLQQLHRAGWVHGDLKPANVLLMADGSARLADFNMAAELEGTHAYTPAFATPDYTPPELLWSEIGERGRRIRPSADVWAFGVLAHLVLTGSFPLPGGTPTARRDAAVAYARGGHELRLSPEPPPGWREIVRACLTRTHADRIGTDALLRRVTGTTEGASGGAGFSPRTRARPRRRVLAALAAGLLALAALGYGVARWAGDGREPAAGPRPGGTGSVAAASYGAAELRTDRDVPPAYRLLIVETAHDCDREEVSPALIAAMLKVESDFDPDLADPAKDEYGIARWTPSVLRWWMNEDGTPGETVPQPPFPPAESVPAMGRYLCWIAPRLDAGLPGDRSVLVAVAYRTSYRKVNDAGGVPPKYRDYADRVAHHLKEYTPRRGK”, the protein production was “failed”. In the case of “MTEQERLELEAAAFRRLVAHLDSRKDVQNIDLMNLSGFCRNCLSKWYKAAADEKHIDITLDDAREVVYGMPYSEWKANYQKEASAEQQAAFVKESKHD”, the protein production was “not failed”. With “MTERKLVAERNFEVNGYDIDAMGIVSNIVYIRWFEDLRTDFINQYMPYSDMMNQQISPILMNTEAEYKTPITIHDKPVGRCYLVKASKLRWEFEFEIESEDAVHCIGKQSGTFFDLQKKKVTRLPEVFQTILSLEHHHHHH” the protein production was “failed”. For “MTERSDYSIRIMSRQEIGMAVDWAAEEGWNPGLHDADCFHAADPEGFLTGLLGNEPVATISVVRYGTAFGFLGFYIVRPKYRGMGFGLKIWNAGLEQLKGRTIGLDGVVAQQENYAKSGFILAYRNIRVKGSGGGKIPAHEGIKPLVELPFETLLTYDSLFFPEERRTFLECWINQRESSSLGIIENNRLSGYGVIRTCRSGSKIGPLFADRADLAEELFCALKASAPEGSPLFLDIPEVNPEAVKLAQRHNMTVVFETSRMYQGNIPELPLGNIYGVTTFELG”, the protein production was “failed”. In the case of “MTERSFEGSAYSDYRSSHQKPGYGTDYAETFRSGYYAALWSRIERPLVEGILSPLGGPGRSCLDFACGTGRVAAVAGPLFGEVVGVDVSRSMLACARVPGNVKLVEADLTVAPLSRRFDVVTAFRFFLNAEDTLKRDALSAIHEHLNDGGLLVSNVHMNATSPMGLACRFLNRFQGRVVRSTLSIHAYRQMLVSNGFVVESVIGYGFLPRPGWLLPRLCETLVGPVETICRRAGVPGRFAQNFLVVARKQ”, the protein production was “failed”. With “MTESDRDQEASMREVVIVKSTPQRGKFNAFAELVGKLVSETRDFPGCLGAYLMLAPERNEQVVMHIWETPDALEAYLTWRADRGDFLEINEYLEVEQDFKTYQLA” the protein production was “not failed”. For “MTETGDDLATVKKPIPFLVIFKDLRHVFSRDTTGREILGIAFPAALALAADPIASLIDTAFVGRLGAVQLAAVGVSIAIFNQASRITIFPLVSLTTSFVAEEDTMEKMKEEANKANLVHAETILVQDSLEKGISSPTSNDTNQPQQPPAPDTKSNSGNKSNKKEKRTIRTASTAMILGLILGLVQAIFLIFSSKLLLGVMGVKPNSPMLSPAHKYLSIRALGAPALLLSLAMQGIFRGFKDTKTPLFATVVADVINIVLDPIFIFVLRLGIIGAAIAHVISQYFMTLILFVFLAKKVNLIPPNFGDLQFGRFLKNGLLLLARTIAVTFCQTLAAAMAARLGTTPMAAFQICLQVWLTSSLLNDGLAVAGQAILACSFAEKDYNKVTAVASRVLQMGFVLGLGLSVFVGLGLYFGAGVFSKDPAVIHLMAIGIPFIAATQPINSLAFVLDGVNFGASDFAYTAYSMVGVAAISIAAVIYMAKTNGFIGIWIALTIYMALRAITGIARMATGTGPWRFLRGRSSSSSS”, the protein production was “failed”. For “MTETHQQLMKLPVNQVFFKYFVPATLGLILMSANILIDGLFVGNGIGTAALAGVNLSYPVISLIMAIALWIGIGGATKYSISIGENRPKKASSIFSLALFLALIISVLLGVFGILNIQTISIWLGANSDTSSFVIEYLSVMFLFGWVITLEQVLSIFVRNDGSPKLSMMALATTSIVNIILNFYTIMILDMGVTGAAISTVLGGFAGLLVLSLHFFNRQAQLRRPAFQWSWKSLMHIFAIGFPSFLAEAGLLVFVTGYNLAMASLAGTEGVAAFSVINYLHGFMFLSFFGIEMALQPMISYYHGAEETEQIKSSMKIGEKTAVILGILLLVIGWGAAPFLVGLFGIESTEIQQLAIDGIRLFFIGYTFLGYNFVYMSYFQSIGRAGSSVVIIILRSFVSLFILLWILPKFIGVTGVWLSLPLSEFFVAVLLFFIARKHVMGKGNPAIGKG”, the protein production was “failed”. For “MTETKPRIAIRYCTQCNWLLRAGWMAQEILQTFASDIGEVSLIPSTGGLFEITVDGTIIWERKRDGGFPGPKELKQRIRDLIDPERDLGHVDRTKHEGLDTLEHHHHHH”, the protein production was “not failed”. In the case of “MTEVAHTASGSTNTMDREGLPVAETTCAPGLPLWARPEARTALGDTLRPGGFSLTDRLATLAGVHPGWRVLDVGCGTGATVLHLRQRYGASAFGCDRSTSLTPGSNNHKGLPVIAADAANLPFADGSMKMVFCECVLSLLVKPLEVLRGLRRLLVPGGLLGVSDLYLRGEGHARVTEGSCLAWQATRMRIESLLHEAGFALHTFEDHSPLLRETAARLALSGALHGGAMNCGERAFPSRDACRRCSPEGIAAPPQATPCSMTECSFSPPATRAVTEQVARPGYFLLLAQSLKGTRED”, the protein production was “failed”. For “MTFCFWMRDTCHQRRRADIGSANADRYWEEDMTGTPRLLESRWDDAYAQTLDEPGKLLYRSNLLGADKRITNYGGGNTSAKVLEIDPLTGEKVRVMWVKGSGGDVGTIKLDGFATLYLEKLEALKGIYKGVEDEDRMVGFLPHCTFNLNPRAASIDTPLHGFVPFDHVDHMHPDAIIAIAASKNSKELTQQIFGDDIGWLPWRRPGFQLGLDLEAFVKANPTAKGVVLESHGLFTWDDDAKACYELTLAIINKAIEWFAAETEGKTIFGGALAKSLPVAERRAIAARLMPEIRGRIGREERKLGHFDDQDAVLEFVNSKDLKPLGNLGTSCPDHFLRTKIRPLILDLDTAKPDVDALTAGLDKALEAYRADYSRYYEACRHDNSPKMRDPNPVIFLIPGVGMLSFAKDKATARIAGEFYVNAINVMRGASTVSEYQGLPEQEAFDIEYWLLEEAKLQRMPKPKSLAGRVAFVTGGAGGIGRATAERLADEGACVVLADIDEAALEAAKGDFVKRYSGDAVRTVKLDVTQEDDVISAFAEASVEFGGVDILVSNAGIASSAPVEDTTLAMWNKNIDILATGYFLVSREAFRLLRRQNLGGNIVFVASKNGLASSPNASAYCTAKAAEIHLARCLALEGAEAGIRVNTVNPDAVLRGSKIWNGEWREQRAASSKIEVTDLEEHYRKRSMLKLNVFPEDIAEAIYFLASDASAKSTGNIINVDAGNAQSFTR”, the protein production was “failed”. In the case of “MTFLIPAYNEEKSIGPLIDRIKMLCPDSEIIVVDNNSSDRTSEIATSRGVRVIFEGKQGKANAMVAAFRNTRTEYAVMMDADLTYLPDDSRVLVEVLKAEGADVVLGSRLNGEKEDGAISRINTVGNHILSFTASILYSPVSDVCTGHWAFNRRAIRHILEEGLNYSGFELEAEMFSKLARAGLKIVEVPITYRKRSDEPKLSSFTDGFKIFRTLVLERLRLEHHHHHH”, the protein production was “failed”. In the case of “MTFNKKEKLSITALLIILYLIPAGLEWLEFDSENLHVIAISLPIWLAFFYLGPFWLFYWTQQNKHVARLHVVAQGVLYVLMMFAGANIVSRLHSMAFPQYQFPIKEQGLSAFLWGVFIFSMTHMYLLYQRFVQEQRLRKEAQLADLTSRLNPHFLFNSLNTISALIHSSPDKADDVLHKLSDILRYSVDQQNKWVPLEHELAVCETYLTVEKARFTDNLNISWQIASSVDMRQLKVPPLLLQPLIENVMKHVKRRPIELLISVQAEQGKLIFKVKDNGKGFSEPSLNEQSKAGQGLNIVKQRVDIAGGELSLFNDTSEQGGAVCEITLPIHACV”, the protein production was “failed”.
